B1: SMAD6 (parent)
chain: SGLVRRLWRSRVVPDREEGGSGGG
B2: SMG5 (parent)
chain: QEKLQVLMAEGLLPAVKVFLDWLR

Variants of: B1
Experiment: protein stability index of a GFP-peptide fusion (GPS, HEK-293T) (PSI 1-6); higher = more stable
Conditions: c terminus: a fixed tail appended
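Note: lentivirally expressed fusions sorted by FACS into six bins by GFP to DsRed ratio, PSI derived from sequencing read proportions per bin multiplied by bin number.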

Variant	protein stability index
G23N	3.01
G23V	3.78
G23S	4.47
G23P	3.89
G24H	2.83
G24T	4.01
G24Q	3.59
G24F	2.44
G24C	4.91
G24E	4
G24K	3.78

Variants of: B2
Experiment: as above
Conditions: c terminus: a fixed tail appended

Variant	protein stability index
E10A	2.7
E10C	2.58
E10D	1.44
M8I	1.9
M8R	3.01
M8Y	3.06
M8S	1.31
M8W	2.3
M8K	2.8
M8F	1.36
M8E	2.44
M8D	1.8
M8L	2.48
M8N	2.57
M8H	4.3
M8A	2.54
M8T	3.02
M8C	2.26
M8G	2.85
M8Q	2.85
M8V	3.7
Q5N	1.67
Q5E	4.03

Variant	protein stability index
Q5P	2.22
Q5Y	1.8
Q5F	1.46
Q5W	1.45
Q5S	2.8
Q5G	1.88
Q5I	2.86
Q5L	2.5
Q5K	2.45
Q5T	1.47
Q5D	3.13
Q5M	2.19
Q5C	2.11
Q5A	2
Q5V	2.31
Q5H	1.58
L4Y	4.02
L4E	1.12
L4S	2.75
L4H	2.2
L4D	3.26
L4R	2.69
L4M	2.32

Variant	protein stability index
L4W	2.18
L4T	3.18
L4I	1.91
L4G	3.1
L4F	2.71
L4C	3.13
L4V	2.58
A9W	1.78
A9E	2.95
A9V	1.58
A9P	2.41
A9I	1.82
A9Q	2.82
A9M	1.81
A9N	3.04
A9T	1.42
A9K	2.21
A9C	2.63
A9L	3.66
A9H	2.41
A9S	2.19
A9R	4.4
A9F	1.78

Variant	protein stability index
A9D	1.76
A9Y	1.98
V6K	2.16
V6G	2.42
V6W	2.51
V6N	3.16
V6Q	2.02
V6C	2.14
V6R	1.99
V6M	1.48
V6Y	3.07
V6D	1.96
V6I	1.5
V6P	2
V6E	2.18
V6H	1.55
V6A	1.82
Q1T	1.96
Q1N	1.62
Q1S	2.88
Q1G	2.22
Q1D	2.79
Q1V	2.18

Variant	protein stability index
Q1A	2.23
Q1H	1.45
Q1K	4.12
Q1F	2.89
Q1E	3.01
Q1I	2.95
Q1L	3.5
Q1P	2.09
Q1M	2.37
Q1R	1.57
Q1W	1.95
Q1C	1.53
Q1Y	2.81
L7V	2.07
L7W	3.24
L7M	1.64
L7K	2.49
L7P	2.26
L7E	2
L7N	2.47
L7R	4.07
L7F	1.8
L7A	2.4

Variant	protein stability index
L7Y	1.86
L7D	1.94
L7S	1.67
L7C	1.54
K3I	1.45
K3H	1.96
K3L	1.78
K3F	1.53
K3T	1.48
K3Q	2.66
K3C	2.03
K3Y	2.15
K3R	3.73
K3V	2.02
K3M	1.5
K3W	1.48
K3E	2.25
K3D	2.02
K3A	4.03
K3N	1.91
K3G	1.91
K3S	1.79
E2P	2.96

Variant	protein stability index
E2S	3.11
E2K	2.38
E2H	3.82
E2Q	2.92
E2N	2.86
E2G	1.6
E2T	2.68
E2A	2.31
E2R	2.37
E2V	2.56
E2M	2.83
E2L	1.44
E2C	2.47
E2W	1.56
E2Y	2.15
E2F	2.2
E2D	2.26
E2I	2.23

Source: the supplement of paper PMC10567573
